Source: patent US20230285581A1
Changes are numbered by the printed parent chain. In names and notes the source's numbering stands.

B1: H1H27747P-N297Q (antibody, human IgG1, V domains shown)
VH: QVQLVESGGAVVQPGRSLRLSCAASGFTFSYYGMHWVRQAPGKGLEWVAVISYDGSKKYYADSVKGRFTISRDNSKNTLYLQMNSLRAEDTAVYYCAKDLTVDFYYGMDVWGQGTTVTVSS
VL: DIQMTQSPSSVSASVGDRVTITCRASQGISSWLAWYQQKPGKAPKLLIYATSSLQSGAPSRFSGSGSGTDFTLTISSLQPEDFATYFCQQANSFPYTFGQGTKLEIKR
B2: H1H27754P-N297Q (antibody, human IgG1, V domains shown)
VH: EVQLVESGGGLVQPGGSLRLSCAASGFTFRTYAMTWVRQAPGKGLDWVSAITGDGGNTYYADSVKGRFTISRDNSKNTLYLQMNSLRAEDTAIYYCAKDQRFSFALYYFDYWGQGTLVTVSS
VL: B1 VL with K42N, T51A, S52F, A58V, F87Y, S93N, Y96W, L104V
B3: H1H21227N-N297Q (antibody, human IgG1, V domains shown)
VH: QVQLVQSGAEVKKPGASVKVSCKVSGYTLTELSIHWVRQVPGKGLEWMGGFDPEEGETIFAQEFRDRVTLTEDTSPDTAYMELSSLKSEDAAVYYCTTPRYCNNGICYDYWGQGTLVTVSS
VL: DIQMTQSPSSLSASVGDRVTITCRASQSISNYLNWYQQKPGKAPKLLIYTASSLQSGVPSRFSGSGSGTDFTLTISSLQTEDFATYYCQQSYSNFPITFGQGTRLEIKR
B4: H1H21227N-N297D (antibody, human IgG1, V domains shown)
VH: B3 VH
VL: B3 VL
B5: H1H21227N (antibody, human IgG1, V domains shown)
VH: B3 VH
VL: B3 VL
B6: H1H21231N (antibody, human IgG1, V domains shown)
VH: EVQLVESGGGLVQPGGSLRLSCAASGFTFSDHYMDWVRQAPGKGLEWVGRTRNKANSHTTEYTASVTGRFTISRDDSRNSLYLQMNSLKTEDTAVYYCVRAGIIGTLFDYWGQGTLVTVSS
VL: B3 VL with S7F, N31S, Y32F, Y36F, L46F, T50A, T80P, N94S, F95P
B7: H1H21231N-N297Q (antibody, human IgG1, V domains shown)
VH: B6 VH
VL: B3 VL with S7F, N31S, Y32F, Y36F, L46F, T50A, T80P, N94S, F95P
B8: H1H27734P-N297Q (antibody, human IgG1, V domains shown)
VH: EVQLVESRGGLVQPGGSLRLSCAASGFTFSSYAMSWVRQAPGKGLEWVSAISGSGGSTFYADSVKGRFTISRDNSKNTVYLQMNSLRAEDTAVYYCAKALVLRFLEWLGDYWGQGTLVTVSS
VL: DIQMTQSPSTLSASVGDRVTITCRASQSISSWLAWFQQKPGKAPKLLIYKASSLESGVPSRFSGSGSGTEFTLTISSLQPDDFATYYCQQYKSYWTFGQGTKVEIKR
B9: H1H27739P-N297Q (antibody, human IgG1, V domains shown)
VH: EVQLVESGGGLVQPGGSLRLSCTASGFTFSSYAMSWVRQAPGKGLEWVSAISGTGSSTYFTDSVKGRFAISRDNSKNTLYLQMNSLRAEDTAVYYCAKDGEWLSTVTLFDYWGQGTLVTVSS
VL: EIVMTQSPATLSVSPGERATLSCRASQSVSSNLAWYQQKPGQAPRLLIYGASTRATGIPARFSGSGSGTDFTLTISSLQSEDFALYYCQQYFIWPPHPTFGPGTKVDIKR
B10: H1H21234N-N297Q (antibody, human IgG1, V domains shown)
VH: QVQLQESGPGLVKPSETLSLTCTVTGGSISRNYWSWIRQPPGKGLEWIGYIYYSGSIDYNPSLKSRVTISVDTSKNQFSLKLSSMTAADTAVYYCARDRWNWKYGMDVWGQGTTVIVSS
VL: EIVLTQSPGTLSLSPGERATLSCRASQTVRNNYLAWYHQKPGQAPRLLIYGASSRATGIPDRFSGSGSGTDFTLTISRLEPEDFTVYYCHQYGNSPWTFGQGTKMEIKR
B11: H1H21234N (antibody, human IgG1, V domains shown)
VH: B10 VH
VL: B10 VL
B12: H2aM25695N (antibody, mouse IgG2a, V domains shown)
VH: B10 VH with D58N, T73M, S83N, M85V
VL: B10 VL with N32S, T85A, H90Q, N94S, P96Y
B13: H1H27729P-N297Q (antibody, human IgG1, V domains shown)
VH: QVQLVESGGGLVKPGGSLRLSCAASGFIFSDYYMSWIRQAPGKGLEWVSYISSSGTTIYGDSVKGRFTMSRDNAKNSLYLQMNSLRAEDTAVYYCARNYALFDYWGQGTLVTVSS
VL: DIQMTQSPSSLSASVGDRVTITCQASQDISKYLNWYQQKPGKAPKLLIYYTSNLETGVPSRFSGSGSGTDFTFTISSLQPEDIATYYCHQSDYLPFTFGPGTKVDIKR
B14: H2aM21229N (antibody, mouse IgG2a, V domains shown)
VH: EVQLVESGGGLVKPGGSLRLSCAASGFTFSRYSMNWVRQAPGKGLEWVSSISSSSSYIYYGDTVKGRFTISRDNAKKSLYLQMNSLRAEDTAVYYCVRDRGQLVLYFDYWGQGTLVTVSS
VL: DIQMTQSPASLSTSIRDRVTITCRASLSISSFLNWFQQRPGKAPKLLIYVASNLQSGVPSRFSDSGSGTDFTLTISSLQPEDFATYYCQQNYSTPPITFGQGTRLEIK

Target: full length monkey MSR1 on HEK293.mfMSR1 cells (Macaca fascicularis)
Sequence (chain, as listed by the source): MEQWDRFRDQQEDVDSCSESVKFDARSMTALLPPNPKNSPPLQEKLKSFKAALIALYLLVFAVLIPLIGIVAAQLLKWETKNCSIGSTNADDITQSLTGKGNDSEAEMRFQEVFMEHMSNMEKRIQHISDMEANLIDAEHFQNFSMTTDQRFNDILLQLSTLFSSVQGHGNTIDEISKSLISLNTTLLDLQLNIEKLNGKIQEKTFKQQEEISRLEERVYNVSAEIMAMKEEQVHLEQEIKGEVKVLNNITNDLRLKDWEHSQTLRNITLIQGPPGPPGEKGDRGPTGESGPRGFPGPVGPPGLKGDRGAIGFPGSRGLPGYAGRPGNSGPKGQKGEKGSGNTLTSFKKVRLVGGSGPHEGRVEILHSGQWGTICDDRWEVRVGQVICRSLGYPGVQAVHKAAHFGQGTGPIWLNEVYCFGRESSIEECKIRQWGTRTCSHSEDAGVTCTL
Assay: ECL cell binding, HEK293.mfMSR1 cells

| ratio of 11 nM antibody binding signal (RLU) to isotype control | Binder |
| --- | --- |
| 21 | B1 |
| 53 | B2 |
| 23 | B3 |
| 25 | B4 |
| 26 | B5 |
| 75 | B6 |
| 69 | B7 |
| 28 | B8 |
| 20 | B9 |
| 35 | B10 |
| 31 | B11 |
| 45 | B12 |
| 6 | B13 |

Target: full length human MSR1 with a C-terminal Myc tag on HEK293.Myc.hMSR1 cells (human) (UniProt P21757)
Sequence (P21757 whole entry): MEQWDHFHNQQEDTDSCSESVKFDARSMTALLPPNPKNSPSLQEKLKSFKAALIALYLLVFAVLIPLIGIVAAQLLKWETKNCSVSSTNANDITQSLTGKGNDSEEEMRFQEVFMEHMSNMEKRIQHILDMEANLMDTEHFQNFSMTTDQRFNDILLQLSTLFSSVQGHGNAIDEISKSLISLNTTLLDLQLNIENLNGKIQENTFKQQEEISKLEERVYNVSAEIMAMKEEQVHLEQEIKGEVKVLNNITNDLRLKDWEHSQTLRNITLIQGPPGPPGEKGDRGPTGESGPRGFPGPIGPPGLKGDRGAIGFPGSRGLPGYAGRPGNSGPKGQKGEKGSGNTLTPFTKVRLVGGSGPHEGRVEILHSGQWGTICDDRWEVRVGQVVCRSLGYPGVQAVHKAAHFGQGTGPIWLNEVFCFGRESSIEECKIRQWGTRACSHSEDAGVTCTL
Assay: ECL cell binding, HEK293.Myc.hMSR1 cells

| ratio of 11 nM antibody binding signal (RLU) to isotype control | Binder |
| --- | --- |
| 26 | B1 |
| 55 | B2 |
| 37 | B3 |
| 34 | B4 |
| 37 | B5 |
| 61 | B6 |
| 64 | B7 |
| 40 | B8 |
| 78 | B14 |
| 22 | B9 |
| 43 | B10 |
| 32 | B11 |
| 35 | B12 |
| 17 | B13 |

Target: mouse MSR1 on RAW264.7 cells (mouse) (UniProt P30204)
Sequence (P30204 whole entry): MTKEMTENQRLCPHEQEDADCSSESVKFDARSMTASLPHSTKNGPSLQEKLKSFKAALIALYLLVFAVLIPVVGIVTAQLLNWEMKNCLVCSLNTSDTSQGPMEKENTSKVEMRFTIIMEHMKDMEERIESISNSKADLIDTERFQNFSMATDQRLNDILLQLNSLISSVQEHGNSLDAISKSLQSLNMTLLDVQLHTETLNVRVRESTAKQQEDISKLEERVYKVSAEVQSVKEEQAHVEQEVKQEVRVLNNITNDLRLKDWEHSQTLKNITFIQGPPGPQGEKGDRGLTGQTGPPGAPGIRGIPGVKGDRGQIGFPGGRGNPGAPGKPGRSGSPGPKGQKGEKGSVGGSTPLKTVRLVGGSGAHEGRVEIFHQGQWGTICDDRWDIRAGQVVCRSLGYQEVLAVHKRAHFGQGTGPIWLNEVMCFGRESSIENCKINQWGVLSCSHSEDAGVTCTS
Assay: flow cytometry, RAW264.7 cells, 10 ug/mL

| MFI | S/N | Binder |
| --- | --- | --- |
| 3630 | 1 | B1 |
| 5410 | 1 | B2 |
| 12800 | 5 | B3 |
| 3580 | 1 | B7 |
| 4780 | 1 | B8 |
| 3270 | 1 | B9 |
| 7050 | 3 | B10 |
| 3480 | 1 | B13 |

Target: endogenously expressed human MSR1 on PMA-treated THP-1 cells (human) (UniProt P21757)
Sequence (P21757 whole entry): as the sequence (P21757 whole entry) above
Assay: ECL cell binding, PMA-treated THP-1 cells

| ratio of 11 nM antibody binding signal (RLU) to isotype control | Binder |
| --- | --- |
| 13 | B1 |
| 66 | B2 |
| 5 | B3 |
| 6 | B4 |
| 7 | B5 |
| 42 | B6 |
| 45 | B7 |
| 21 | B8 |
| 56 | B14 |
| 9 | B9 |
| 25 | B10 |
| 18 | B11 |
| 8 | B12 |
| 8 | B13 |

Target: human MSR1 extracellular domain expressed with a N-terminal nonahistidine tag (His9-hMSR1; R&D Systems, Cat #2708-MS) (human) (UniProt P21757)
Sequence (P21757 other isoform, or with tags, fused parts or gaps): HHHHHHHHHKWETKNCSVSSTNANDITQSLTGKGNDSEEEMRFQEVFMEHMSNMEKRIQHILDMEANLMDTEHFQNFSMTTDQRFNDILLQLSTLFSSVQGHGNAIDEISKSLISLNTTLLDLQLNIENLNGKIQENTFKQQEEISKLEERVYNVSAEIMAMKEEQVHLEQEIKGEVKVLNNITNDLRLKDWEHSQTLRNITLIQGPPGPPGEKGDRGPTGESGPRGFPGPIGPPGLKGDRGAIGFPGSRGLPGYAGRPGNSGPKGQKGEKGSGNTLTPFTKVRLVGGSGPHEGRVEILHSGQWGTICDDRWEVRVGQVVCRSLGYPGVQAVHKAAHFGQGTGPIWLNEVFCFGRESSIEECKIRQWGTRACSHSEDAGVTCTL
Assay: competition ELISA; 100 nM antibody, competitor Ac-LDL, plate-coated His9-hMSR1

| % Blocking [%] | Binder |
| --- | --- |
| -44 | B1 |
| -42 | B2 |
| 105 | B3 |
| 101 | B4 |
| 105 | B5 |
| -62 | B6 |
| -60 | B7 |
| -38 | B8 |
| -11 | B14 |
| -47 | B9 |
| 75 | B10 |
| 70 | B11 |
| 65 | B12 |
| 8 | B13 |

Target: human MSR1 extracellular domain expressed with a N-terminal nonahistidine tag (His9-hMSR1; R&D Systems, Cat #2708-MS) (human) (UniProt P21757)
Assay: competition ELISA; 1 µM antibody, competitor 10 nM Ox-LDL, plate-coated His9-hMSR1

| % Blocking [%] | Binder |
| --- | --- |
| -31 | B1 |
| -44 | B2 |
| -15 | B8 |
| -41 | B9 |
| 36 | B13 |

Target: human MSR1 extracellular domain expressed with a N-terminal nonahistidine tag (His9-hMSR1; R&D Systems, Cat #2708-MS) (human) (UniProt P21757)
Assay: competition ELISA; 500 nM antibody, competitor 5 nM Ox-LDL, plate-coated His9-hMSR1

| % Blocking [%] | Binder |
| --- | --- |
| 38 | B14 |

Target: human MSR1 extracellular domain expressed with a N-terminal nonahistidine tag (His9-hMSR1; R&D Systems, Cat #2708-MS) (human) (UniProt P21757)
Assay: competition ELISA; 300 nM antibody, competitor biot-AGE-BSA, plate-coated His9-hMSR1

| % Blocking [%] | Binder |
| --- | --- |
| -2 | B1 |
| -9 | B2 |
| 96 | B3 |
| 97 | B4 |
| 99 | B5 |
| -44 | B6 |
| -50 | B7 |
| -4 | B8 |
| 3 | B14 |
| -9 | B9 |
| -27 | B10 |
| 21 | B11 |
| 16 | B12 |
| 15 | B13 |

Target: human MSR1 extracellular domain expressed with a N-terminal nonahistidine tag (His9-hMSR1; R&D Systems, Cat #2708-MS) (human) (UniProt P21757)
Assay: competition ELISA; 500 nM antibody, competitor 10 nM Ox-LDL, plate-coated His9-hMSR1

| % Blocking [%] | Binder |
| --- | --- |
| 97 | B3 |
| 99 | B4 |
| 100 | B5 |
| 22 | B6 |
| 26 | B7 |
| 49 | B10 |
| 98 | B11 |
| 96 | B12 |
